The record followed here is patent publication US20210181204A1.

In the test the target is eCry3.1Ab hybrid insecticidal protein. In words: direct ELISA: eCry3.1Ab coated at 1 ug/ml, RGS-His HRP detection. For orientation: ELISA stands for enzyme-linked immunosorbent assay.

B1: synNAPS13 variant Y44A (designed binder)
chain: RGSHHHHHHGSMVKVKFKRWGEEKEVDTSKILHVLRVGKYVRFSYDDNGKLGAGAVTEKDAPKELLDMLARAEREKK
As for B1, the Binding (OD 450 nm) turned out to be 0.4 OD 450 nm.
